Starred links: 1 amine or outer side, 2 acyl side, 3 side chain; linkers in the order of their positions; H or OH if unused. Positions of bridges follow the written chain, without caps; N, C: chain ends. Non-standard residues stand in square brackets, D forms with d. Primed or numbered codes have the meaning given here. *: point of attachment. PyrS2″ = (S)-3-amino-1-((pent-4-en-1-yloxy)carbonyl)pyrrolidine-3-carboxylic acid (stapling residue), C=CCCCOC(=O)N1CC[C@@](N[*:1])(C(=O)[*:2])C1; RdN″ = (R)-4-(((allyloxy)carbonyl)(methyl)amino)-2-amino-2-methylbutanoic acid (stapling residue), C=CCOC(=O)N(C)CC[C@@](C)(N[*:1])C(=O)[*:2]; B5(16) = 2-amino-2-(pent-4-en-1-yl)hept-6-enoic acid = 2,2-bis(4-pentenyl)glycine (stitching residue), C=CCCCC(CCCC=C)(N[*:1])C(=O)[*:2]; B5(4) = 2,2-bis(4-pentenyl)glycine = 2-amino-2-(pent-4-en-1-yl)hept-6-enoic acid (stitching residue), C=CCCCC(CCCC=C)(N[*:1])C(=O)[*:2]; B5(5) = 2,2-bis(4-pentenyl)glycine, 2-amino-2-(pent-4-en-1-yl)hept-6-enoic acid (stitching residue), C=CCCCC(CCCC=C)(N[*:1])C(=O)[*:2]; RdN = (R)-4-(((allyloxy)carbonyl)(methyl)amino)-2-amino-2-methylbutanoic acid, C=CCOC(=O)N(C)CC[C@@](C)(N[*:1])C(=O)[*:2]; PyrS = (S)-1-((allyloxy)carbonyl)-3-aminopyrrolidine-3-carboxylic acid, C=CCOC(=O)N1CC[C@@](N[*:1])(C(=O)[*:2])C1; B5(3) = 2,2-bis(4-pentenyl)glycine (stitching residue), C=CCCCC(CCCC=C)(N[*:1])C(=O)[*:2]; B5 = 2-amino-2-(pent-4-en-1-yl)hept-6-enoic acid, C=CCCCC(CCCC=C)(N[*:1])C(=O)[*:2]; Phe(3-COOH) = N[C@@H](Cc1cccc(C(=O)O)c1)C(=O)O; 2F3MeF = Cc1cccc(C[C@H](N[*:1])C(=O)[*:2])c1F; S7 = C[C@@](CCCCCC=[*:3])(N[*:1])C(=O)[*:2]; Phe(3-OMe) = COc1cccc(C[C@H](N)C(=O)O)c1; Phe(2-Cl) = N[C@@H](Cc1ccccc1Cl)C(=O)O; Phe(4-F) = N[C@@H](Cc1ccc(F)cc1)C(=O)O; Bta = N[C@@H](Cc1csc2ccccc12)C(=O)O; αAllylPro = C=CC[C@@]1(C(=O)O)CCCN1; tBuAla = CC(C)(C)C[C@H](N)C(=O)O; R8 = C=CCCCCCC[C@@](C)(N)C(=O)O; S8 = C=CCCCCCC[C@](C)(N)C(=O)O; Ms = CS(=O)(=O)*
Columns and labels:
[1] = molecular target: T1, beta-catenin in DLD1 TCF/LEF luciferase reporter cells (Homo sapiens (Human), UniProt P35222 1-781); assay: cell-based or functional assay
T1 sequence: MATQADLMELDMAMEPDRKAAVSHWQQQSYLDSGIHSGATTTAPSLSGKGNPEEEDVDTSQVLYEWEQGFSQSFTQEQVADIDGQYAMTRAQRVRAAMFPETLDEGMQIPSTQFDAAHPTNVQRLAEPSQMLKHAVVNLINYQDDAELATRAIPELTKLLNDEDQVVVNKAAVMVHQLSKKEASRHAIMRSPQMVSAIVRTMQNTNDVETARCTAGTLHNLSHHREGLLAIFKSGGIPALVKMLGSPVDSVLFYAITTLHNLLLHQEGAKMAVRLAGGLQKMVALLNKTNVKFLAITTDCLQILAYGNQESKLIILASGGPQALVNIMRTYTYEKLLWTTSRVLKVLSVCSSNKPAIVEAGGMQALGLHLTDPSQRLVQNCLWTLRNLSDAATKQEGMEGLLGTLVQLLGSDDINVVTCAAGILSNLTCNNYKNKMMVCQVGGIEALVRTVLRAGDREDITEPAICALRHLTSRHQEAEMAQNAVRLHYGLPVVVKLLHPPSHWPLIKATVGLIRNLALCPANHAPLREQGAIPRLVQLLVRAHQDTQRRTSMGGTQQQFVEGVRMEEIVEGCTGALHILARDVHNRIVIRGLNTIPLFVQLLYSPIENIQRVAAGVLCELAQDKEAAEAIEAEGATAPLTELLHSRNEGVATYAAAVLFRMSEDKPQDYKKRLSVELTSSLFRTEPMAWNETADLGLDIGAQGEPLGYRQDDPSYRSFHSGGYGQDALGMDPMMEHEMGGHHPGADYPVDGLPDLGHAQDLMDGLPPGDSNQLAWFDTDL

[2] = molecular target: T2, beta-catenin in DLD1 TCF/LEF luciferase reporter cells (UniProt P35222 2-781); assay: cell-based or functional assay
T2 sequence (looked up): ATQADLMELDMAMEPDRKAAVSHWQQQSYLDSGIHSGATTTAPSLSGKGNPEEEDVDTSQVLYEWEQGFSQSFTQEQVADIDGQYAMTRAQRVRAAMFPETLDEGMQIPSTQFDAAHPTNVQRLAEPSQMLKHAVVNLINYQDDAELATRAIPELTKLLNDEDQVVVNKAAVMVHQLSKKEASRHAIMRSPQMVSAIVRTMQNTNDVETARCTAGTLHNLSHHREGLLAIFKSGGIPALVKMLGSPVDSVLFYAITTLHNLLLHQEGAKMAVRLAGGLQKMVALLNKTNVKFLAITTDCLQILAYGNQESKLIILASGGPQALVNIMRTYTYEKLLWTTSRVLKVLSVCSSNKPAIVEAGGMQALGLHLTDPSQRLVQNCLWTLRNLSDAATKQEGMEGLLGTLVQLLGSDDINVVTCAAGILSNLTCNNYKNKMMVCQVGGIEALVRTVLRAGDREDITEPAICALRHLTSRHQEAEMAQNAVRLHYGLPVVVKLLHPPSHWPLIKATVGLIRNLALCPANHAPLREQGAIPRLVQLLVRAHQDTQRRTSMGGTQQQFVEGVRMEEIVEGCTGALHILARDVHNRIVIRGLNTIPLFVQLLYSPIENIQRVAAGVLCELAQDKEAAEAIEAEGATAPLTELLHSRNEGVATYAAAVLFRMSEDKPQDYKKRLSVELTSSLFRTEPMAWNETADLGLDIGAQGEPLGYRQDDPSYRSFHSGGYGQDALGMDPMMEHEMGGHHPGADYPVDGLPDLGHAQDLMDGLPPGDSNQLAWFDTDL

[3] = molecular target: T3, B-cat-Halo (beta-catenin HaloTag construct expressed in HEK293 cells) (UniProt P35222 1-781); assay: cell-based or functional assay
T3 sequence (looked up): T1 sequence

[4] = molecular target: T4, Bcat-Halo (UniProt P35222 1-781, HaloTag NanoBRET 618 Ligand bound to the Halo part); assay: NanoBRET Abs IC50, HEK293 cells transfected with Bcat-Halo and TCF4-Luc (competitor: TCF4-Luc); cellular assay
T4 construct: Expressed in transfected HEK293 cells (NanoBRET acceptor construct); also called beta-catenin HaloTag fusion; not shown: HaloTag
T4 sequence (looked up): T1 sequence

[5] = molecular target: T5, full-length beta-Catenin (Uniprot ID P35222) (Homo sapiens (Human), UniProt P35222 2-781); assay: fluorescence polarization competition; 10 nM full-length beta-catenin + 10 nM 5FAM-TCF4 10-53 as competitor probe
T5 construct: Used at 10 nM in the FP probe solution as 'full-length'; Also used here for the endogenous beta-catenin of the DLD1 TCF/LEF reporter cells (functional rows); also called bCat; B-Catenin
T5 sequence: T2 sequence (looked up)
Procedure: (§1) The plate was incubated protected from light for 60 minutes at 20° C. prior to read. Reads were performed on a CLARIOstar plate reader (BMG Labtech) in duplicate, and data were fitted to a 1:1 binding model with hill slope using an in-house script. All provided concentrations are final concentrations.

[6] = molecular target: T6, full-length beta-Catenin (Uniprot ID P35222) (Homo sapiens (Human), UniProt P35222 2-781); assay: fluorescence polarization competition; peptide titrated against 10 nM full-length beta-catenin with 10 nM 5FAM-TCF4(10-53) probe
T6 construct: also called bCat; B-Catenin
T6 sequence: T2 sequence (looked up)
Procedure: as §1

[7] = molecular target: T7, full-length beta-Catenin (Uniprot ID P35222) (Homo sapiens (Human), UniProt P35222 1-781); assay: fluorescence polarization competition; peptide titrated against full-length beta-catenin + 5FAM-TCF4(10-53)
T7 construct: also called bCat; B-Catenin
T7 sequence: T1 sequence
Procedure: as §1

## Ac-[αAllylPro]D[tBuAla][B5(3)]D[Phe(3-COOH)]AAFL[PyrS2″][Phe(2-Cl)][Bta]NAA[dA]-NH2 (staple 1-4, 4-11) [I-2041]
[1]
  DLD1 4% Abs IC50: 1900 nM

## Ac-[αAllylPro]D[tBuAla][B5(4)]D[Phe(3-COOH)]QAFL[PyrS2″][2F3MeF][Bta]A-NH2 (staple 1-4, 4-11) [I-2057]
[2]
  DLD1 4% Abs IC50: 4000 nM
[3]
  NanoBRET Abs IC50: 1500 nM

## Ac-[αAllylPro]DF[B5(16)]DDAAFN[PyrS2″][Phe(2-Cl)][Bta]Q-NH2 (staple 1-4, 4-11, Stapled (stitched) peptide composition) [I-1041]
[4]
  IC50: > 20000 nM
[5]
  EC50: 8 nM

## Ac-[αAllylPro]DF[B5(16)]DDAAFS[PyrS2″][Phe(2-Cl)][Bta]Q-NH2 (staple 1-4, 4-11, Stapled (stitched) peptide composition) [I-1045]
[4]
  IC50: 23900 nM
[5]
  EC50: 5 nM

## Ac-[αAllylPro]DF[B5(4)]DDAAFN[PyrS2″][Phe(2-Cl)][Bta]S-NH2 (staple 1-4, 4-11, Stapled (stitched) peptide composition) [I-1047]
[4]
  IC50: 28400 nM
[5]
  EC50: 5 nM

## Ac-ADI[RdN]DEAAFQ[S7]FWH-NH2 (staple 4-11) [I-66: Ac-Ala-Asp-Ile-RdN-Asp-Glu-Ala-Ala-Phe-Gln-S7-Phe-Trp-His-NH2 (stapled peptide)]
[6]
  IC50: 1090 nM

B1: I-67: Ac-Ala-Asp-Ile-RdN-Asp-Glu-Ala-Ala-Phe-Gln-S7-Phe-Trp-His-NH2 (stapled peptide) (peptide)
peptide: Ac-ADI[RdN″]DEAAFQ[S7]FWH-NH2
modifications: staple 4-11
notes: This is the later eluting staple isomer composition
[6]
  IC50: 1230 nM

## Ac-FDA[R8]DDAA[Phe(4-F)]V[PyrS]FWQ-NH2 (staple 4-11) [I-78: Ac-Phe-Asp-Ala-R8-Asp-Asp-Ala-Ala-4FF-Val-PyrS-Phe-Trp-Gln-NH2 (stapled peptide)]
[6]
  IC50: 5000 nM

B2: I-710 (peptide)
peptide: Ms-[αAllylPro]DI[B5(5)]DEAAFQ[S8]F[Bta]Q-NH2
modifications: staple 1-4, 4-11
notes: separate staple-isomer composition (earlier eluting HPLC peak); also called MeSO2-PL3-Asp-Ile-B5-Asp-Glu-Ala-Ala-Phe-Gln-S8-Phe-BztA-Gln-NH2
[7]
  IC50: 73 nM

B3: I-711 (peptide)
peptide: Ms-[αAllylPro]DI[B5(5)]DEAAFQ[S8]F[Bta]Q-NH2
modifications: staple 1-4, 4-11
notes: separate staple-isomer composition (later eluting HPLC peak); also called MeSO2-PL3-Asp-Ile-B5-Asp-Glu-Ala-Ala-Phe-Gln-S8-Phe-BztA-Gln-NH2
[7]
  IC50: 88 nM

B4: I-724 (peptide)
peptide: Ac-[αAllylPro]DI[B5]DEAA[Phe(3-OMe)]Q[S8]F[Bta]Q-NH2
modifications: staple 1-4, 4-11
notes: also called Ac-PL3-Asp-Ile-B5-Asp-Glu-Ala-Ala-3OMeF-Gln-S8-Phe-BztA-Gln-NH2
[7]
  IC50: 114 nM

— patent publication US20240116985A1 (published 2024)
